Source: patent publication US20240018242

Columns and labels:
[1] = molecular target: FH-AGO2 (Flag-HA-tagged wild type AGO2 expressed in MCF-7 cells) (UniProt Q9UKV8)
[2] = molecular target: FH-AGO2-K726R (UniProt Q9UKV8)
Sequence of FH-AGO2-K726R (Q9UKV8 whole entry K726R): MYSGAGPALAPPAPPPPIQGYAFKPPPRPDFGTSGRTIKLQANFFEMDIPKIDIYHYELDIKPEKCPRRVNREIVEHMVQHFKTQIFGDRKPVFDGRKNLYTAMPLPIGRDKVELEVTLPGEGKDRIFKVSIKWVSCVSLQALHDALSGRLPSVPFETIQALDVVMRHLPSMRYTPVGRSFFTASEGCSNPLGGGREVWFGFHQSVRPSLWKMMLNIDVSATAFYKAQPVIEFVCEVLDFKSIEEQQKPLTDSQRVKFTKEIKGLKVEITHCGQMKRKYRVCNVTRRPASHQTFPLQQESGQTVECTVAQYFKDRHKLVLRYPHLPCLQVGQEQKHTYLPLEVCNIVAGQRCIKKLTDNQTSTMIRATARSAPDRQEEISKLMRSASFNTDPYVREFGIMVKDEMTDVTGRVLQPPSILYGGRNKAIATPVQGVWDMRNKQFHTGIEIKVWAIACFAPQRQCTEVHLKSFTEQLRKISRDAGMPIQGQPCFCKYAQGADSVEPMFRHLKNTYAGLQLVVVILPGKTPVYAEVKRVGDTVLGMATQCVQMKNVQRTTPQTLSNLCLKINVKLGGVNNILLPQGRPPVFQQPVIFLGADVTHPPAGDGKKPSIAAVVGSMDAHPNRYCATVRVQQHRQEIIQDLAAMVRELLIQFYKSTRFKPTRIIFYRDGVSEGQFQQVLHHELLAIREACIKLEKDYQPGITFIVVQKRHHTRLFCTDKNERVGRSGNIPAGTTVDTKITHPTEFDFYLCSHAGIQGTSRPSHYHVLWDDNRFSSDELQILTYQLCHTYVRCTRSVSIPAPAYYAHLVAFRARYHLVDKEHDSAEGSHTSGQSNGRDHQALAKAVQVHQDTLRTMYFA

Sequence of FH-AGO2 (Flag-HA-tagged wild type AGO2 expressed in MCF-7 cells) (Q9UKV8 whole entry): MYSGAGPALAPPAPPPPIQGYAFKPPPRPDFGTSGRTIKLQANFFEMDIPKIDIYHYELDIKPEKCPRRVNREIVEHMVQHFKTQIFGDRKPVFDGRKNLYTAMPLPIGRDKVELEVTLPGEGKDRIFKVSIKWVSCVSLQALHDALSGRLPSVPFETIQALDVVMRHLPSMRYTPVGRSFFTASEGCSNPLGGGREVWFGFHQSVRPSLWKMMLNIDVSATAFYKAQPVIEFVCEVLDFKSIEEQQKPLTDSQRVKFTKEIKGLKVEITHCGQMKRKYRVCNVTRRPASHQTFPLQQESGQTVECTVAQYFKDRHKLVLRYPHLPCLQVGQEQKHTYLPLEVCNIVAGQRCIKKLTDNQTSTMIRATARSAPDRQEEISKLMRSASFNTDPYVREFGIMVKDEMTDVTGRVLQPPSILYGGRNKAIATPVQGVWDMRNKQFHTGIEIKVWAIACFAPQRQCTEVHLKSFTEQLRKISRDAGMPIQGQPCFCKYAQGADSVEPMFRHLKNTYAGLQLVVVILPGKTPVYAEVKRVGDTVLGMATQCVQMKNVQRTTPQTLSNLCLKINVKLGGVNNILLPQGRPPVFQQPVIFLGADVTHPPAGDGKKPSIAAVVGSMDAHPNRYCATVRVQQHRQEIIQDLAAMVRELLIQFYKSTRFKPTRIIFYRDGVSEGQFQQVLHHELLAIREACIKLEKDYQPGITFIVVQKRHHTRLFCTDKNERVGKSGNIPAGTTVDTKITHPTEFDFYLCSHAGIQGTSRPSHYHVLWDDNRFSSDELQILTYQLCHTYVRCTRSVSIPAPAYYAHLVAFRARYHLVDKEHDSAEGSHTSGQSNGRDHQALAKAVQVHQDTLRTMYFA

Substance	K726me1 level on FH-AGO2 in in vitro demethylation assay (immunoblot) [1]	K726me1 level in in vitro demethylation assay (immunoblot) [2]
FH-LSD1 (Flag-HA-tagged wild type LSD1 expressed in MCF-7 cells)	FH-LSD1 but not FH-LSD1-K661A decreased K726mel level on FH-AGO2	had no observable effects on FH-AGO2-K726R
FH-LSD1-K661A (catalytically compromised LSD1)	FH-LSD1 but not FH-LSD1-K661A decreased K726mel level on FH-AGO2	–
